Data on four molecules can be found in patent US20160272937A1, “METHODS OF GENERATING INTERMEDIATE MESODERM CELLS FROM HUMAN PLURIPOTENT STEM CELLS” (THE BRIGHAM AND WOMEN'S HOSPITAL, INC., priority 2013, published 2016).

Assay [1] concerns CHIR-induced hPSCs. Briefly: Growth factor screen for PAX2 induction in CHIR-induced mesendodermal cells (immunostaining). In kind it is cell-based, human. The following applies: day 4. On the procedure: For immunofluorescence studies, cultures are washed once with PBS (Invitrogen) and fixed in 4% paraformaldehyde for 15 min at room temperature (RT). Fixed cells are then washed three times in PBS and incubated in blocking buffer (0.3% Triton X-100 (Fisher Scientific) and 5% normal donkey serum (EMD Millipore) in PBS) for 1 hour at RT.
The cells are then incubated with primary antibody overnight at 4° C. or for 2 hours at RT in antibody dilution buffer (0.3% Triton X-100 and 1% BSA (Roche) in PBS). Cells are then washed three times in PBS and incubated with Alexa Fluor 488-, 555-, or 647-conjugated secondary antibodies (1:500) (Molecular Probes) in antibody dilution buffer for 1 hour at RT. For immunostaining with Biotinylated Lotus Tetragonolobus Lectin (LTL, Vector Labs), a Streptavidin/Biotin Blocking Kit (Vector Labs) and Alexa Fluor 488- or 647-conjugated Streptavidin (Molecular Probes) were used according to manufacturer's instructions.
Nuclei can be counterstained with DAPI (Sigma). […] Immunofluorescence is visualized using an inverted fluorescence microscope (Nikon Eclipse Ti, Tokyo, Japan). Quantification is performed by counting a minimum of five random fields at 10× magnification.
PAX2 is selected since it is an early marker of IM, and, unlike the markers OSR1 or LHX1 which are also expressed in the adjacent lateral plate mesoderm, PAX2 expression is restricted in mesoderm to the IM.

The test system of assay [2] is hPSCs (hESC and hiPSC lines). Briefly: Intermediate mesoderm differentiation: PAX2/LHX1 immunostaining. The format is cell-based, human. The note with it: BMP-7 added to FGF2 and RA after CHIR 36 hours, day 3. On the procedure: Mesendoderm differentiation—the media is changed to Advanced RPMI (A-RPMI, Invitrogen) supplemented with 1×L-glutamax and 1× penicillin/streptomycin and either CHIR99021 (CHIR, Stemgent), human Wnt3a (R&D systems), and/or human activin A (R&D systems) at the doses described. Definitive endoderm differentiation—cells are treated with A-RPMI+1×L-glu+1×P/S+5 μM CHIR for 24 hours, then A-RPMI+1×Lglu+1×P/S+100 ng/mL of activin A for 2-3 days. Hepatic differentiation—cells at the definitive endoderm stage are treated with A-RPMI+1×L-glu+1×P/S+1×B27 supplement (Invitrogen)+20 ng/mL BMP-4 (R&D systems)+10 ng/mL FGF2 (Invitrogen) for 5 days, then A-RPMI+1×L-glu+1×P/S+1×B27+10 ng/mL HGF for 5 days, then HCM Hepatocyte Culture Medium (Lonza) supplemented with 20 ng/mL Oncostatin M and 10 ng/mL HGF (Peprotech) for 5 days. Pancreatic differentiation—cells at the definitive endoderm stage are treated with DMEM/F12+2% FBS (Hyclone)+50 ng/mL FGF7 (R&D systems) for 2 days, then high-glucose DMEM (Mediatech)+1% B27+2 μM retinoic acid (Sigma)+0.25 μM KAAD cyclopamine (EMD Millipore)+100 ng/mL recombinant human Noggin (R&D systems) for 4 days, then high-glucose DMEM+1% B27+100 ng/mL Noggin+300 nM indolactam V (Stemgent)+1 μM ALK5 inhibitor II (Axxora) for 4 days. Anterior foregut endoderm differentiation—cells at the definitive endoderm stage are treated with DMEM/F12+1×L-glu+1×B27+200 ng/mL Noggin+10 μM SB431542 (Stemgent) for 3 days. For hindgut endoderm differentiation, cells at the definitive endoderm stage were treated with A-RPMI+1×L-glu+1×P/S+2% FBS+500 ng/mL FGF4 (R&D systems)+5 μM CHIR for 4 days. […]
Nuclei can be counterstained with DAPI (Sigma). […] Immunofluorescence is visualized using an inverted fluorescence microscope (Nikon Eclipse Ti, Tokyo, Japan). Quantification is performed by counting a minimum of five random fields at 10× magnification. […]

Assay [3] deals with human pluripotent stem cells (hPSCs). Briefly: Mesendoderm induction: BRACHYURY immunofluorescence in hPSCs. In kind it is cell-based. The following applies: WNT3A alone 500 ng/mL, 24 hours of treatment. On the procedure: For differentiation experiments, hESCs or hiPSCs can be grown on Geltrex, washed once with PBS and dissociated into single cells with Accutase ([…] Technologies). Cells are plated at a density of 4×10^4 cells/cm^2 onto Geltrex-coated plates in mTeSR1 medium supplemented with the ROCK inhibitor Y27632 10 μM (Stemgent). Cells are fed daily with mTeSR1 without Y27632 for 2-3 days until they reached 50% confluency. Mesendoderm differentiation-the media is changed to Advanced RPMI (A-RPMI, Invitrogen) supplemented with 1×L-glutamax and 1× penicillin/streptomycin and either CHIR99021 (CHIR, Stemgent), human Wnt3a (R&D systems), and/or human activin A (R&D systems) at the doses described. Definitive endoderm differentiation-cells are treated with […] for 24 hours, then […]+100 ng/mL of activin A for 2-3 days. Hepatic differentiation-cells at the definitive endoderm stage are treated with […]27 supplement (Invitrogen)+20 ng/mL BMP-4 (R&D systems)+10 ng/mL FGF2 (Invitrogen) for 5 days, then […]27+10 ng/mL HGF for 5 days, then HCM Hepatocyte Culture Medium (Lonza) supplemented with 20 ng/mL Oncostatin M and 10 ng/mL HGF (Peprotech) for 5 days. Pancreatic differentiation-cells at the definitive endoderm stage are treated with DMEM/F12+2% FBS (Hyclone)+50 ng/mL FGF7 (R&D systems) for 2 days, then high-glucose DMEM (Mediatech)+1% B27+2 μM retinoic acid (Sigma)+0.25 μM KAAD cyclopamine (EMD Millipore)+100 ng/mL recombinant human Noggin (R&D systems) for 4 days, then high-glucose DMEM+1% B27+100 ng/mL Noggin+300 nM indolactam V (Stemgent)+1 μM ALK5 inhibitor II (Axxora) for 4 days. Anterior foregut endoderm differentiation-cells at the definitive endoderm stage are treated with DMEM/F12+1×L-glu+1×B27+200 ng/mL Noggin+10 μM SB431542 (Stemgent) for 3 days. […] Immunofluorescence is visualized using an inverted fluorescence microscope (Nikon Eclipse Ti, Tokyo, Japan). Quantification is performed by counting a minimum of five random fields at 10× magnification. […]

FGF2: fibroblast growth factor-2: the “cells positive for PAX2 by immunostaining” value in assay [1] (CHIR 24 hours then FGF2 100 ng/mL) is 50-60%. Besides, the PAX2 expression entry in assay [1] (FGF2 added to hPSCs not initially induced with CHIR) is listed as “absence of PAX2 expression”.

B1: BMP-4: candidate growth factor screened for PAX2 induction (protein, UniProt P12644 293-408, looked up)
Bone morphogenetic protein 4: SPKHHSQRARKKNKNCRRHSLYVDFSDVGWNDWIVAPPGYQAFYCHGDCPFPLADHLNSTNHAIVQTLVNSVNSSIPKACCVPTELSAISMLYLDEYDKVVLKNYQEMVVEGCGCR
For B1, the PAX2 expression result in assay [1] (CHIR 24 hours then increasing doses of factor) was “no PAX2 expression”.

B2: BMP-7: candidate growth factor screened for PAX2 induction (protein, UniProt P18075 293-431, looked up)
Bone morphogenetic protein 7: STGSKQRSQNRSKTPKNQEALRMANVAENSSSDQRQACKKHELYVSFRDLGWQDWIIAPEGYAAYYCEGECAFPLNSYMNATNHAIVQTLVHFINPETVPKPCCAPTQLNAISVLYFDDSSNVILKKYRNMVVRACGCH
As for B2, in assay [2], the “expression of LHX1” value is listed as “minimal effect” and the “percentage of cells expressing PAX2” value was “significantly decreased”. In addition, the “PAX2 expression compared to vehicle control” value in assay [1] (CHIR 24 hours then low doses of factor) is given as “modest increases”.

B3: WNT3A: wingless-type MMTV integration site family, member 3A; human Wnt3a (R&D systems) (protein, UniProt P56704 19-352, looked up)
Protein Wnt-3a: SYPIWWSLAVGPQYSSLGSQPILCASIPGLVPKQLRFCRNYVEIMPSVAEGIKIGIQECQHQFRGRRWNCTTVHDSLAIFGPVLDKATRESAFVHAIASAGVAFAVTRSCAEGTAAICGCSSRHQGSPGKGWKWGGCSEDIEFGGMVSREFADARENRPDARSAMNRHNNEAGRQAIASHMHLKCKCHGLSGSCEVKTCWWSQPDFRAIGDFLKDKYDSASEMVVEKHRESRGWVETLRPRYTYFKVPTERDLVYYEASPNFCEPNPETGSFGTRDRTCNVSSHGIDGCDLLCCGRGHNARAERRREKCRCVFHWCCYVSCQECTRVYDVHTCK
In the case of B3, the “cells expressing BRACHY” value in assay [3] turned out to be 26.7±1.9%.
